Measurements taken from PMC4672726.

Molecular target: hemagglutinin (HA)–tagged FERONIA (FER-HA) (Arabidopsis thaliana) (UniProt Q9SCZ4)
Assay: co-IP

hemagglutinin (HA)–tagged FERONIA (FER-HA) (Arabidopsis thaliana), sequence (Q9SCZ4 28-895): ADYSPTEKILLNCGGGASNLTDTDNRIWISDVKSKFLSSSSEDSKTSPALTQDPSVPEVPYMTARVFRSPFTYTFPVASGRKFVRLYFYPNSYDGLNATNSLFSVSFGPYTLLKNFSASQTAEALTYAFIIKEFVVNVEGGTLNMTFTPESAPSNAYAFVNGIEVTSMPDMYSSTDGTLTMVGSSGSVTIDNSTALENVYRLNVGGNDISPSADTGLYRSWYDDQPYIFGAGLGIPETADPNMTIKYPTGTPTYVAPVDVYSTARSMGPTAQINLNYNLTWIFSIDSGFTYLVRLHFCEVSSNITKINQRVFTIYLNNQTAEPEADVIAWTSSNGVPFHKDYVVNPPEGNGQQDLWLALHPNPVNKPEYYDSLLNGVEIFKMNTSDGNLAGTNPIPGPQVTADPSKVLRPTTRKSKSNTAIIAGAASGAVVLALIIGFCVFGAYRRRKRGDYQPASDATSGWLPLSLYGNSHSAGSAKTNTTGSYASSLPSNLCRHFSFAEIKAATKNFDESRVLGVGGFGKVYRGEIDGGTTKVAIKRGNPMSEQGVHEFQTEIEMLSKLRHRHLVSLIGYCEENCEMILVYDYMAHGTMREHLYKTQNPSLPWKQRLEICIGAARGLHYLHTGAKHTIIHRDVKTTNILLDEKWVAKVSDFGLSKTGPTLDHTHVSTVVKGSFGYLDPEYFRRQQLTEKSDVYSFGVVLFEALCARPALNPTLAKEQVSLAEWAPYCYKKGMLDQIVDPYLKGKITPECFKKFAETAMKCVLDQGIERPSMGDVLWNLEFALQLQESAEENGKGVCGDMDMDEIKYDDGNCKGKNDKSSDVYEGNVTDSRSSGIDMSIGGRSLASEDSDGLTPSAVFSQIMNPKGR

Work on “HisRALF (RALF, rapid alkalinization factor, N-terminal 6×His fusion peptide) (from UniProt Q9SRY3 72-120)” yielded a fold binding over the inactive analog HisRALF(Δ2–8) of 4.5 to 6 fold.
